Measurements taken from the Human Domainome abundance scans (Beltran et al. 2025).
± gives the uncertainty stated by the source.

B1: Bromodomain adjacent to zinc finger domain protein 2B, residues 1927 to 1982; numbered along this chain, Q9UIF8 (parent)
chain: KSIMKVYCQICRKGDNEELLLLCDGCDKGCHTYCHRPKITTIPDGDWFCPACIAKA

Variants of: B1
Experiment: abundance fitness (aPCA) (normalised: wild type 0, dead -1); higher = more abundant; growth selection in yeast, the domain comes from the species named
Conditions: Homo sapiens

Abundance fitness: each site, then its substitutions
E18: H 0.042 ± 0.16, C -0.235 ± 0.13
P43: G -0.016 ± 0.079, R -0.083 ± 0.081, W -0.188 ± 0.14, Q 0.024 ± 0.12, Y -0.263 ± 0.19, S 0.053 ± 0.1, I 0.092 ± 0.27, V -0.127 ± 0.084
D46: Y -0.375 ± 0.17, W -0.582 ± 0.16, T -0.094 ± 0.096, P 0.058 ± 0.12, M -0.218 ± 0.13, E 0.028 ± 0.11, C -0.06 ± 0.14
A51: M 0.022 ± 0.11, N -0.064 ± 0.17, G 0.033 ± 0.069, I -0.14 ± 0.2, K -0.162 ± 0.13, F -0.385 ± 0.22, W -0.175 ± 0.1, Y -0.346 ± 0.21, H -0.214 ± 0.16
D44: T -0.078 ± 0.12, S -0.031 ± 0.086, R -0.086 ± 0.082, Q -0.282 ± 0.24, I -0.018 ± 0.28, W -0.205 ± 0.12, H -0.022 ± 0.17
I53: T -0.225 ± 0.1, G -0.03 ± 0.065, N -0.242 ± 0.15, R -0.087 ± 0.078, M 0.021 ± 0.11, E 0.016 ± 0.084, V -0.004 ± 0.07, C -0.051 ± 0.12
E17: I -0.127 ± 0.24, R 0.072 ± 0.078, D -0.038 ± 0.2, G 0.022 ± 0.076, T -0.069 ± 0.19, H -0.34 ± 0.24, Y -0.409 ± 0.26, P 0.085 ± 0.2
C49: V -1.03 ± 0.13, Y -1.11 ± 0.14, S -0.838 ± 0.092, M -0.859 ± 0.17, H -0.333 ± 0.21, G -0.788 ± 0.066, R -0.822 ± 0.073, I -0.859 ± 0.22
M4: I -0.068 ± 0.12, L -0.145 ± 0.082, A -0.316 ± 0.086, K -0.127 ± 0.17, H -0.009 ± 0.22
K13: S -0.11 ± 0.089, A -0.032 ± 0.074, Q -0.111 ± 0.099, N -0.102 ± 0.13, H -0.076 ± 0.12, E -0.045 ± 0.12, W -0.25 ± 0.091
H31: I -0.817 ± 0.16, S -0.639 ± 0.088, D -0.386 ± 0.12, C -0.483 ± 0.13
T32: K -0.156 ± 0.1, L 0.026 ± 0.079, Q -0.131 ± 0.12, F -0.235 ± 0.14, C -0.333 ± 0.11, Y -0.019 ± 0.17, N -0.133 ± 0.2, M -0.048 ± 0.1
Q9: A -0.108 ± 0.076, I -0.164 ± 0.11, K -0.146 ± 0.13, M -0.096 ± 0.14, D 0.028 ± 0.12
I42: Q -0.201 ± 0.11, P -0.043 ± 0.11, G -0.048 ± 0.077, T 0.011 ± 0.1, V -0.039 ± 0.099, D -0.209 ± 0.24, A 0.042 ± 0.1
C30: T 0.039 ± 0.096, H -0.016 ± 0.15, Q 0.024 ± 0.11, R -0.023 ± 0.064, M 0.069 ± 0.09, W 0.031 ± 0.075
K1: R -0.366 ± 0.12, I -0.262 ± 0.2, C -0.279 ± 0.19, E -0.035 ± 0.12, M -0.157 ± 0.14, V -0.581 ± 0.36, A -0.398 ± 0.35, Y -0.318 ± 0.34, T -0.155 ± 0.25
T40: G -0.106 ± 0.079, F -0.015 ± 0.12, D -0.095 ± 0.21, R -0.043 ± 0.069, A -0.164 ± 0.1, L -0.049 ± 0.083, N -0.232 ± 0.14, V -0.056 ± 0.098
D24: T 0.06 ± 0.12, G 0.155 ± 0.095, N 0.113 ± 0.12, F -0.273 ± 0.18, Q 0.08 ± 0.14, K -0.005 ± 0.13
A54: N -0.136 ± 0.17, Y -0.102 ± 0.2, C -0.095 ± 0.15, T -0.031 ± 0.1
G45: A -0.154 ± 0.2
C26: E -0.676 ± 0.12, N -0.753 ± 0.2, Y -0.706 ± 0.13, W -0.931 ± 0.12, V -0.612 ± 0.1, R -0.674 ± 0.069, P -0.75 ± 0.14
D15: C -0.122 ± 0.12, P -0.293 ± 0.12, A -0.234 ± 0.089, K -0.038 ± 0.16, T -0.22 ± 0.14, Y -0.452 ± 0.17, E 0.113 ± 0.11, Q -0.238 ± 0.16, V -0.06 ± 0.094, R -0.263 ± 0.069
I3: N 0.105 ± 0.15, P -0.081 ± 0.096, F -0.282 ± 0.2, R -0.125 ± 0.066, C -0.129 ± 0.14, A 0.014 ± 0.077, Q 0.104 ± 0.17, W -0.221 ± 0.092, T -0.063 ± 0.1
T41: Q -0.018 ± 0.17, H -0.041 ± 0.16, E 0.023 ± 0.11
P37: F -0.333 ± 0.12, S -0.202 ± 0.081, A -0.056 ± 0.1, C -0.32 ± 0.11, Q -0.239 ± 0.1, M -0.227 ± 0.094, D -0.195 ± 0.16, G -0.161 ± 0.098
S2: E 0.034 ± 0.24, I 0.051 ± 0.27, Q -0.073 ± 0.23, R -0.077 ± 0.091
I10: F -0.181 ± 0.18, M -0.047 ± 0.1, P -0.479 ± 0.11, C 0.089 ± 0.13, T -0.01 ± 0.13
I39: T -0.124 ± 0.12, W -0.137 ± 0.095, E 0.04 ± 0.099, V -0.031 ± 0.08, F -0.164 ± 0.15, Q -0.059 ± 0.095
C11: G -1.1 ± 0.081, I -0.912 ± 0.15, D -1.05 ± 0.15, P -0.767 ± 0.11, M -1.08 ± 0.17, T -1.14 ± 0.17
L19: N 0.027 ± 0.14, K -0.016 ± 0.13, S -0.03 ± 0.094, T -0.1 ± 0.11, W -0.03 ± 0.11, E -0.012 ± 0.093, R -0.078 ± 0.097, I -0.125 ± 0.18, M 0.061 ± 0.13
V6: E -0.092 ± 0.12, K 0.117 ± 0.16, M -0.064 ± 0.11, G -0.045 ± 0.072, T -0.028 ± 0.098, L -0.076 ± 0.077, P -0.143 ± 0.11, H -0.036 ± 0.2
C34: T -0.694 ± 0.1, N -0.818 ± 0.19, K -0.561 ± 0.11, V -0.771 ± 0.071, Q -0.731 ± 0.12, G -0.495 ± 0.07, F -0.766 ± 0.12, M -0.672 ± 0.095, S -0.584 ± 0.08
L22: P -0.126 ± 0.14, H -0.039 ± 0.17, I -0.054 ± 0.2, S 0.01 ± 0.085, C 0.008 ± 0.14
K55: Q -0.171 ± 0.36, G 0.058 ± 0.48
F48: I 0.07 ± 0.2, P -0.132 ± 0.12, E -0.028 ± 0.1, N 0.192 ± 0.15
L20: V -0.069 ± 0.079, K -0.138 ± 0.14, A -0.227 ± 0.076
L21: P -0.524 ± 0.12, S -0.2 ± 0.08, I -0.072 ± 0.15, F -0.3 ± 0.13
D27: P -0.173 ± 0.12, K -0.001 ± 0.17, R -0.127 ± 0.074, G 0.023 ± 0.065, Y -0.085 ± 0.13
R12: C -0.163 ± 0.12, K 0.043 ± 0.13, T -0.028 ± 0.1, I 0.001 ± 0.15, M -0.05 ± 0.11, V -0.079 ± 0.065
R36: Q -0.1 ± 0.12, T 0.078 ± 0.11, E 0.058 ± 0.1, C 0.008 ± 0.12
A56: G -0.364 ± 0.21, S -0.317 ± 0.17, P -0.533 ± 0.26, W -0.331 ± 0.33
C52: E -0.581 ± 0.1, F -0.736 ± 0.21, Q -0.531 ± 0.15, T -0.539 ± 0.13, V -0.905 ± 0.13, D -0.43 ± 0.18
K5: D -0.162 ± 0.13, V -0.176 ± 0.078, I -0.334 ± 0.17, P -0.198 ± 0.1, S -0.019 ± 0.091, C -0.125 ± 0.13
W47: G -0.289 ± 0.072, E -0.338 ± 0.092, N -0.186 ± 0.17, H -0.169 ± 0.22, F -0.345 ± 0.17, C -0.287 ± 0.12
G14: V 0.035 ± 0.08, I -0.23 ± 0.31, K -0.063 ± 0.14, T 0.046 ± 0.12, S 0.032 ± 0.092, R 0.018 ± 0.068, D -0.056 ± 0.15
C8: W -1.17 ± 0.12, A -1.25 ± 0.15, P -0.686 ± 0.17, R -1.08 ± 0.088, Y -0.942 ± 0.14, T -0.902 ± 0.19, E -0.836 ± 0.15
Y7: T -0.102 ± 0.1, M -0.059 ± 0.097, N 0.057 ± 0.14, R -0.152 ± 0.065, H -0.045 ± 0.14, C -0.136 ± 0.13, D 0.142 ± 0.099, K -0.147 ± 0.12, S -0.025 ± 0.078
N16: F -0.329 ± 0.15, T -0.017 ± 0.1, G -0.014 ± 0.082, C -0.081 ± 0.1
Y33: N -0.213 ± 0.16, V -0.178 ± 0.071, R -0.053 ± 0.069, A -0.105 ± 0.074, S -0.086 ± 0.077, D -0.123 ± 0.11
K28: T -0.026 ± 0.11, D -0.055 ± 0.13, H 0.04 ± 0.2, Y -0.035 ± 0.16
G29: R -0.075 ± 0.064, L -0.149 ± 0.074, V 0.002 ± 0.079, D -0.378 ± 0.12, S -0.019 ± 0.074
G25: F -0.33 ± 0.19, I -0.45 ± 0.26, L -0.266 ± 0.09, Q 0.003 ± 0.13, K -0.031 ± 0.13, D -0.192 ± 0.093, H -0.124 ± 0.17, Y -0.221 ± 0.31, S -0.149 ± 0.081
H35: L 0.027 ± 0.065, S -0.105 ± 0.077, M 0.002 ± 0.11, G -0.102 ± 0.075, E -0.169 ± 0.093, K 0.024 ± 0.12, P -0.093 ± 0.11, Y -0.201 ± 0.1, W -0.18 ± 0.091
K38: P -0.122 ± 0.092, I -0.071 ± 0.12, C -0.128 ± 0.1, F -0.147 ± 0.16, M -0.09 ± 0.11, Q -0.219 ± 0.13, W -0.216 ± 0.098, V -0.104 ± 0.088
